Laboratory results: patent US20160272683A1 (Novo Nordisk, published 2016)
Numbered stars: 1 amine (or outer) side, 2 acyl side, 3 side chain; on linkers, the order of the positions; unused ones are H or OH. Ends that are not written are not given here. * marks the point of attachment. C20 diacid = O=C(O)CCCCCCCCCCCCCCCCCCC(=O)*; C16 diacid = O=C(O)CCCCCCCCCCCCCCC(=O)*; γGlu = O=C(O)[C@H](CCC(=O)[*:2])N[*:1]; C12 diacid = O=C(O)CCCCCCCCCCC(=O)*; Palmitoyl = CCCCCCCCCCCCCCCC(=O)*

T1: human amylin receptor (human calcitonin receptor + human RAMP3) (human) (UniProt P30988)
T1 sequence (looked up) 1: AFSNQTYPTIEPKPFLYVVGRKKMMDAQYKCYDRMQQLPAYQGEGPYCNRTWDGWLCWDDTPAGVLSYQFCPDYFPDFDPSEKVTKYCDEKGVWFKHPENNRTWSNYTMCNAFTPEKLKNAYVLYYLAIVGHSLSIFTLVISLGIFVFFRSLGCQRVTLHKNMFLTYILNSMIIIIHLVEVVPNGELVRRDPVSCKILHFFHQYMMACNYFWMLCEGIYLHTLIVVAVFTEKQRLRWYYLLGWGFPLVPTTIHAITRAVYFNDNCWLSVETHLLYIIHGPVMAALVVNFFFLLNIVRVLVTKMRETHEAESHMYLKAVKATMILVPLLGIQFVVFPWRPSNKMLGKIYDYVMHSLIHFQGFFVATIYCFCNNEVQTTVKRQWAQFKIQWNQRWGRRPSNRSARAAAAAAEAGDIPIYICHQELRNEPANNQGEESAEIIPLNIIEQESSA
T1 sequence (looked up) 2: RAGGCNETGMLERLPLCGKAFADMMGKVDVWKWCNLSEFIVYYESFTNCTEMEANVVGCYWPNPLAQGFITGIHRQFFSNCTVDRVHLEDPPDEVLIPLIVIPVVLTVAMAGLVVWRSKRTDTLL

T2: human calcitonin receptor on BHK570/CRE-luc cells (human, UniProt P30988 25-474)
T2 sequence (looked up): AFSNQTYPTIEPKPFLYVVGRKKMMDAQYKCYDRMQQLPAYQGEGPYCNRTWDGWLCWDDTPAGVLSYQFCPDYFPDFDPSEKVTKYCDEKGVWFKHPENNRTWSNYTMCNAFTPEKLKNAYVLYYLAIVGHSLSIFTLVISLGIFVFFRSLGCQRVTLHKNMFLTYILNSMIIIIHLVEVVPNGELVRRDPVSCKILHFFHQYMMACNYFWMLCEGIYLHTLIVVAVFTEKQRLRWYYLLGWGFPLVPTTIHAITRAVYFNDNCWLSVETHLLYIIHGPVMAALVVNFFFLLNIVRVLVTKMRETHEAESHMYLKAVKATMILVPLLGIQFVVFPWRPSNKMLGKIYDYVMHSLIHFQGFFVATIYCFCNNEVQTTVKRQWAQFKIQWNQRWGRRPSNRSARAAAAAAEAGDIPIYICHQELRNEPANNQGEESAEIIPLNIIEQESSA

T3: human amylin 3(a) receptor (human calcitonin receptor co-expressed with RAMP-3) on BHK570/CRE-luc cells (human, UniProt P30988 25-474; O60896 24-148)
T3 sequence (looked up) 1: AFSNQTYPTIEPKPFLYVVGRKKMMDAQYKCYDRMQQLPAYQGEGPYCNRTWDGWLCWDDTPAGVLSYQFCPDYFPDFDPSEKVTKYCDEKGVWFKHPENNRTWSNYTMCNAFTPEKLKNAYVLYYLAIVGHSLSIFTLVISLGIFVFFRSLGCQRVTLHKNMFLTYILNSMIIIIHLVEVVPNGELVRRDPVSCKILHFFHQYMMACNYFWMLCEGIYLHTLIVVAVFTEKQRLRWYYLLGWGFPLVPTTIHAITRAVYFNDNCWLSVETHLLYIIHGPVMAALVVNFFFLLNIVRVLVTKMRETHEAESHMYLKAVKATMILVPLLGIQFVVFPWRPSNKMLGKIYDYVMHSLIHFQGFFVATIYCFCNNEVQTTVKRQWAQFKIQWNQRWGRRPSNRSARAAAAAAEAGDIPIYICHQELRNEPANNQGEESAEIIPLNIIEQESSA
T3 sequence (looked up) 2: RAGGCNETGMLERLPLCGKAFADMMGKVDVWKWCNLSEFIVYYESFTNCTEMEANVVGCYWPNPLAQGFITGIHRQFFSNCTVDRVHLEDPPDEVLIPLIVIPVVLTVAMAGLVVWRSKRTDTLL


Columns and labels:
[1] = target: T1, human amylin receptor (human calcitonin receptor + human RAMP3) (human); test: whole-cell competition vs 125I-rat amylin (Assay Va)
[2] = target: T2, human calcitonin receptor on …; test: cell-based or functional assay
[3] = target: T3, human amylin 3(a) receptor (human …); test: cell-based or functional assay

Binder | IC50 [1] [nM] | hCTR funct. EC50 (pM), tested with HSA [2] [pM] | hAmylin-R funct. EC50 (pM), tested with HSA [3] [pM]
{C12 diacid}-EASELSTAALGRLSAELHELATLPRTETGPESP-NH2 [[N-terminal(C12 diacid)]mimylin] | 8.97 |  | 
{C16 diacid}-EASELSTAALGRLSAELHELATLPRTETGPESP-NH2 [[N-terminal(C16 diacid)]mimylin] | 0.498 |  | 
Palmitoyl-EASELSTAALGRLSAELHELATLPRTETGPESP-NH2 [[N-terminal(C16)]mimylin] | 0.435 |  | 

Results, then the binder that gave them:

IC50 [1] [nM] | hCTR funct. EC50 (pM), tested with HSA [2] [pM] | hAmylin-R funct. EC50 (pM), tested with HSA [3] [pM] | Binder
0.511 |  |  | EASELSTAALGRLSAELHELATLPRTETGPESP-NH2 [mimylin]
 | 62 | 154 | {C20 diacid-γGlu}-ASGLSTAVLGKLSQELHELQTYPPTETGSGTY-NH2 (SMILES CC(C)C[C@H](NC(=O)CNC(=O)[C@H](CO)NC(=O)[C@H](C)NC(=O)CC[C@H](NC(=O)CCCCCCCCCCCCCCCCCCC(=O)O)C(=O)O)C(=O)N[C@@H](CO)C(=O)N[C@H](C(=O)N[C@@H](C)C(=O)N[C@H](C(=O)N[C@@H](CC(C)C)C(=O)NCC(=O)N[C@@H](CCCCN)C(=O)N[C@@H](CC(C)C)C(=O)N[C@@H](CO)C(=O)N[C@@H](CCC(N)=O)C(=O)N[C@@H](CCC(=O)O)C(=O)N[C@@H](CC(C)C)C(=O)N[C@@H](Cc1c[nH]cn1)C(=O)N[C@@H](CCC(=O)O)C(=O)N[C@@H](CC(C)C)C(=O)N[C@@H](CCC(N)=O)C(=O)N[C@H](C(=O)N[C@@H](Cc1ccc(O)cc1)C(=O)N1CCC[C@H]1C(=O)N1CCC[C@H]1C(=O)N[C@H](C(=O)N[C@@H](CCC(=O)O)C(=O)N[C@H](C(=O)NCC(=O)N[C@@H](CO)C(=O)NCC(=O)N[C@H](C(=O)N[C@@H](Cc1ccc(O)cc1)C(N)=O)[C@@H](C)O)[C@@H](C)O)[C@@H](C)O)[C@@H](C)O)C(C)C)[C@@H](C)O) [[N-terminal(C20 diacid-gGlu), des1, 4G, 9V, 12K, 15Q, 21Q, 23Y, 25P, 30S, 31G, 32T, 33Y]mimylin]
 | 50 | 37 | {C20 diacid-γGlu}-ASQLSTAVLGRLSQRLHRLQTYPRTQTGSQTY-NH2 (SMILES CC(C)C[C@H](NC(=O)[C@H](CCCNC(=N)N)NC(=O)CNC(=O)[C@H](CC(C)C)NC(=O)[C@@H](NC(=O)[C@H](C)NC(=O)[C@@H](NC(=O)[C@H](CO)NC(=O)[C@H](CC(C)C)NC(=O)[C@H](CCC(N)=O)NC(=O)[C@H](CO)NC(=O)[C@H](C)NC(=O)CC[C@H](NC(=O)CCCCCCCCCCCCCCCCCCC(=O)O)C(=O)O)[C@@H](C)O)C(C)C)C(=O)N[C@@H](CO)C(=O)N[C@@H](CCC(N)=O)C(=O)N[C@@H](CCCNC(=N)N)C(=O)N[C@@H](CC(C)C)C(=O)N[C@@H](Cc1c[nH]cn1)C(=O)N[C@@H](CCCNC(=N)N)C(=O)N[C@@H](CC(C)C)C(=O)N[C@@H](CCC(N)=O)C(=O)N[C@H](C(=O)N[C@@H](Cc1ccc(O)cc1)C(=O)N1CCC[C@H]1C(=O)N[C@@H](CCCNC(=N)N)C(=O)N[C@H](C(=O)N[C@@H](CCC(N)=O)C(=O)N[C@H](C(=O)NCC(=O)N[C@@H](CO)C(=O)N[C@@H](CCC(N)=O)C(=O)N[C@H](C(=O)N[C@@H](Cc1ccc(O)cc1)C(N)=O)[C@@H](C)O)[C@@H](C)O)[C@@H](C)O)[C@@H](C)O) [[N-terminal(C20 diacid-gGlu), des1, 4Q, 9V, 15Q, 16R, 19R, 21Q, 23Y, 27Q, 30S, 31Q, 32T, 33Y]mimylin]
